{
  "source": "paper doi:10.1101/2023.02.23.529646",
  "about": "(bioRxiv, 2023)",
  "binders": {"B1": {"name": "ECSIT_(CTER) (residues 221-431) (domain or fragment)", "chain": "QDPVELAMFGLRHMEPDLSARVTIYQVPLPKDSTGAADPPQPHIVGIQSPDQQAALARHNPARPVFVEGPFSLWLRNKCVYYHILRADLLPPEEREVEETPEEWNLYYPMQLDLEYVRSGWDNYEFDINEVEEGPVFAMCMAGAHDQATMAKWIQGLQETNPTLAQIPVVFRLAGSTRELQTSSAGLEEPPLPEDHQEEDDNLQRQQQGQS"}},
  "key": {"ACAD9WT (res. 38-621) [1]": {"biological_target": "T1, ACAD9WT (res. 38-621) (human, UniProt Q9H845 38-621)", "T1 sequence": "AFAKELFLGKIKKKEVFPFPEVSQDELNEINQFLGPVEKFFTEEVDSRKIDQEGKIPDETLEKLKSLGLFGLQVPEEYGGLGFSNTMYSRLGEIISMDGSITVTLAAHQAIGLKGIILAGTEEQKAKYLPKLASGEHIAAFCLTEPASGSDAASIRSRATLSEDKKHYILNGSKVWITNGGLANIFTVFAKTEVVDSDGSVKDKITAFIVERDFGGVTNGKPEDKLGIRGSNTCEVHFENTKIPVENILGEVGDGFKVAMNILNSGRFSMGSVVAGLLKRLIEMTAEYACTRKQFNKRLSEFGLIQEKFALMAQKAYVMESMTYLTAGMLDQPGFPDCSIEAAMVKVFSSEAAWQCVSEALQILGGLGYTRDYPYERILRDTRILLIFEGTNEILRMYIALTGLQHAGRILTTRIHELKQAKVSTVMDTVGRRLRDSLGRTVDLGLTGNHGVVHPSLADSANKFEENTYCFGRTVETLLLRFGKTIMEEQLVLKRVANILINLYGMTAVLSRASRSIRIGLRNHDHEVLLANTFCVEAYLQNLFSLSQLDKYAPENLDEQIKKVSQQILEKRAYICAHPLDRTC", "assay": "ITC"}, "ACAD9_(S191A)": {"biological_target": "T2, ACAD9_(S191A) (human, UniProt Q9H845 38-621, S191A)", "T2 sequence": "T1 sequence with S154A", "assay": "ITC"}, "ACAD9WT (res. 38-621) [2]": {"biological_target": "T1, ACAD9WT (res. 38-621)", "assay": "mass photometry"}, "ACAD9_(A184S/SR194TS)": {"biological_target": "T3, ACAD9_(A184S/SR194TS) (human, UniProt Q9H845 38-621, A184S | SR194TS)", "T3 sequence": "T1 sequence with A147S, S157T, R158S", "assay": "mass photometry"}, "VLCAD_(ACAD9)": {"biological_target": "T4, VLCAD_(ACAD9) (human, UniProt P49748 72-655, 437MGGMGFM443 to 437LGGLGYT443)", "T4 sequence": "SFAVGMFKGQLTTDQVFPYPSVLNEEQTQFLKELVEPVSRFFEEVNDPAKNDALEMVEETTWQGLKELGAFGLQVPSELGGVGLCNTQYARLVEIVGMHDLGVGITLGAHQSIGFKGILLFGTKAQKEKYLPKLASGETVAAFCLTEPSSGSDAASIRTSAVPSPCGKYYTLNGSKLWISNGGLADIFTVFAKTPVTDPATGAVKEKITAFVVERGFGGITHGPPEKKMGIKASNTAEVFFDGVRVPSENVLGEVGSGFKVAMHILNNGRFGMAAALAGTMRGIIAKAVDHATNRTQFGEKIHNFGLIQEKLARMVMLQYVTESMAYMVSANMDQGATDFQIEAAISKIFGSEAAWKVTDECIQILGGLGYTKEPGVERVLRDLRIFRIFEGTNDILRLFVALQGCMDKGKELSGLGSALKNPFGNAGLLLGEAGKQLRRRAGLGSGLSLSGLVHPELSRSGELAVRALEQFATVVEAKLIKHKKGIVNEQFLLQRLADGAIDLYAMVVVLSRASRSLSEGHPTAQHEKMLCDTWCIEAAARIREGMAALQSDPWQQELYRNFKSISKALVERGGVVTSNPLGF", "assay": "mass photometry"}},
  "note": "Changes are numbered by the printed parent chain.",
  "data": [
    {"binder": "B1", "values": [
      {"measurement": "Kd", "setting": "ACAD9WT (res. 38-621) [1]", "result": 1450, "unit": "nM"},
      {"measurement": "Kd", "setting": "ACAD9_(S191A)", "result": 3930, "unit": "nM"},
      {"measurement": "stoichiometry N", "setting": "ACAD9WT (res. 38-621) [2]", "result": "2 ECSIT_(CTER) monomers per ACAD9 dimer"},
      {"measurement": "binding result", "setting": "ACAD9_(A184S/SR194TS)", "result": "binds"},
      {"measurement": "binding result", "setting": "VLCAD_(ACAD9)", "result": "binds"}
    ]}
  ]
}
